Reference: patent publication US20060063223A1 (CHEMOCENTRYX, published 2006)

How the values were obtained:
[1] = target: T1, human CCR1 (C-C chemokine receptor-1) (human, UniProt P32246 1-355); experiment: cell-based or functional assay
T1 sequence (looked up): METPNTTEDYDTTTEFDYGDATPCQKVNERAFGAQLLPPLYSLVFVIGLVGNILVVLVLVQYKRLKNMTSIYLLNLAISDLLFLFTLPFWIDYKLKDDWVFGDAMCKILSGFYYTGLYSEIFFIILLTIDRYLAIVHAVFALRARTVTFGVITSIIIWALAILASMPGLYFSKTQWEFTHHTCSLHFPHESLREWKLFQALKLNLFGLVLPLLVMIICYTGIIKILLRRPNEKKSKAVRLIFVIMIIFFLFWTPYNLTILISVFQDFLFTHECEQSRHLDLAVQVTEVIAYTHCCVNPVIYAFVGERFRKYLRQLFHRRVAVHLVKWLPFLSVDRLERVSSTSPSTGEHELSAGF

[2] = target: T2, human FPRL1 (formyl peptide receptor like 1) (human, UniProt P25090 1-351); experiment: competition with 125I-WKYMVm on L1.2-FPRL1 cells, filter binding
T2 construct: whole, on cells; also called L1.2-FPRL1; CCR12 (provisional)
T2 sequence (looked up): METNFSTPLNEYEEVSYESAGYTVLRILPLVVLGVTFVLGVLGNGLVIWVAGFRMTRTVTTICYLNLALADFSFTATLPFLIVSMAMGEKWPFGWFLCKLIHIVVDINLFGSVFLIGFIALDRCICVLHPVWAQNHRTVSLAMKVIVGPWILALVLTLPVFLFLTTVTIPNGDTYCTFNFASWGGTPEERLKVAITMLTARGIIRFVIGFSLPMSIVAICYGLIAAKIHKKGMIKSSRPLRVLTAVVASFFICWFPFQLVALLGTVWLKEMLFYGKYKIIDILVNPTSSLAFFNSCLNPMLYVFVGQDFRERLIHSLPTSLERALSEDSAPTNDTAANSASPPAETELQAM
Description: (§1) Binding assay. Competition binding studies were conducted using monocytes, L1.2-CCR1 or L1.2-FPRL1 cells. […] Reactions were aspirated onto PEI-treated GF/B glass filters using a cell harvester (Packard). Filters were washed twice (25 mM HEPES, 500 mM NaCl, 1 mM CaCl₂, 5 mM MgCl₂, adjusted to pH 7.1). Scintillant (MicroScint-10; 35 μl) was added to the filters and counted in a Packard Topcount scintillation counter. Data were analyzed and plotted using Prism (GraphPad Software, San Diego, Calif.).

[3] = target: T1, human CCR1 (C-C chemokine receptor-1); experiment: competition with 125I-MIP-1α on L1.2-CCR1 cells
Description: as §1

[4] = target: T2, human FPRL1 (formyl peptide receptor …); experiment: cell-based or functional assay
[5] = target: T2, human FPRL1 (formyl peptide receptor …); experiment: competition with 125I-WKYMVm on human monocytes, filter binding
Description: as §1

[6] = target: T1, human CCR1 (C-C chemokine receptor-1); experiment: competition with 125I-MIP-1α on L1.2-CCR1 cells, 3 hr at 4° C., filter binding
Description: as §1

[7] = target: T1, human CCR1 (C-C chemokine receptor-1); experiment: competition with 125I-MIP-1α on human monocytes, 3 hr at 4° C., filter binding
Description: as §1

[8] = target: T1, human CCR1 (C-C chemokine receptor-1); experiment: competition with 125I-MIP-1α on human monocytes

Molecule: CCL5/RANTES (from UniProt P13501 24-91) (ligand)
- EC50, THP-1 cell migration [1]: 0.5 nM
- fold decrease in potency in THP-1 cell chemotaxis relative to CCL15Δ24/LKN-1 [1]: 3 fold

B1: SHAAGtide (MLWRRKIGPQMTLSHAAG) (peptide)
peptide: MLWRRKIGPQMTLSHAAG
notes: Synthetic 18-residue peptide; also called CCXP1; SHAAGtide peptide
- IC50 [2]: 280 nM
- binding result [3]: no binding
- EC50 in functional assays [4]: 10 to 30 nM
- IC50 [5]: 10 nM

B2: CCL15/MIP-1δ (92aa) (ligand)
chain: QFINDAETELMMSKLPLENPVVLNSFHFAADCCTSYISQSIPCSLMKSYFETSSECSKPGVIFLTKKGRQVCAKPSGPGVQDCMKKLKPYSI
- EC50, THP-1 cell chemotaxis [1]: 50 nM

B3: CCL23/CKβ8 digested with chymase (ligand)
chain: HATSADCCISYTPRSIPCSLLESYFETNSECSKPGVIFLTKKGRRFCANPSDKQVQVCMRMLKLDTRIKTRKN
- EC50, THP-1 cell chemotaxis [1]: 0.05 nM
- fold decrease of EC50 against undigested CCL23/CKβ8, THP-1 cell chemotaxis [1]: 50 fold

B4: CCL3/MIP-1α (ligand, UniProt P10147 27-92, looked up)
chain: ADTPTACCFSYTSRQIPQNFIADYFETSSQCSKPGVIFLTKRSRQVCADPSEEWVQKYVSDLELSA
modifications: also: 125I-labelled when used as tracer
- IC50 [6]: 0.15 nM
- IC50 [7]: 0.3 nM
- EC50, THP-1 cell migration [1]: 0.5 nM
- fold decrease in potency in THP-1 cell chemotaxis relative to CCL15Δ24/LKN-1 [1]: ~3 fold

B5: SHAAGtide lacking the N-terminal amino acid (Met) (peptide)
peptide: LWRRKIGPQMTLSHAAG
- fold decrease in potency for receptor signaling in L1.2-FPRL1 cells, relative to SHAAGtide [4]: ~10 fold

B6: CCL15Δ24/LKN-1 (68aa) (ligand)
chain: SFHFAADCCTSYISQSIPCSLMKSYFETSSECSKPGVIFLTKKGRQVCAKPSGPGVQDCMKKLKPYSI
- EC50, THP-1 cell chemotaxis [1]: 0.06 nM

B7: CCL23β Δ24 (ligand)
chain: MLWRRKIGPQMTLSHAAGFHATSADCCISYTPRSIPCSLLESYFETNSECSKPGVIFLTKKGRRFCANPSDKQVQVCMRMLKLDTRIKTRKN
notes: Begins with the 18-residue SHAAGtide insertion; R&D Systems catalog item; also called CCLβΔ24
- IC50 [6]: 20 nM
- fold increase in binding activity over full-length CCL23β [8]: > 10 fold
- IC50 [7]: 4.5 nM
- IC50 [2]: 210 nM
- IC50 [5]: 35 nM

B8: CCL15/MIP-1δ digested with PMN sup #1 (ligand)
chain: VLNSFHFAADCCTSYISQSIPCSLMKSYFETSSECSKPGVIFLTKKGRQVCAKPSGPGVQDCMKKLKPYSI
- EC50, THP-1 cell chemotaxis [1]: 0.25 nM

B9: CCL23β (ligand)
chain: RVTKDAETEFMMSKLPLENPVLLDMLWRRKIGPQMTLSHAAGFHATSADCCISYTPRSIPCSLLESYFETNSECSKPGVIFLTKKGRRFCANPSDKQVQVCMRMLKLDTRIKTRKN
notes: 116-residue alternatively spliced form; recombinant, special order from R&D Systems; also called CKβ8-1
- binding result [8]: binds

B10: CCL23α (CCL23/CKβ8, 22-120) (ligand)
chain: RVTKDAETEFMMSKLPLENPVLLDRFHATSADCCISYTPRSIPCSLLESYFETNSECSKPGVIFLTKKGRRFCANPSDKQVQVCMRMLKLDTRIKTRKN
- EC50, THP-1 cell chemotaxis [1]: 2.5 nM

B11: CCL23α Δ24 (CCL23Δ24/MPIF-1, 46-120) (ligand)
chain: RFHATSADCCISYTPRSIPCSLLESYFETNSECSKPGVIFLTKKGRRFCANPSDKQVQVCMRMLKLDTRIKTRKN
notes: Recombinant CCL23/CKβ8 lacking the N-terminal 24 residues
- fold increase in binding activity over full-length CCL23α [8]: > 10 fold
- EC50, THP-1 cell chemotaxis [1]: 0.09 nM

B12: CCL23/CKβ8 digested with PMN sup #1 (ligand)
chain: LLDRFHATSADCCISYTPRSIPCSLLESYFETNSECSKPGVIFLTKKGRRFCANPSDKQVQVCMRMLKLDTRIKTRKN
- EC50, THP-1 cell chemotaxis [1]: 0.15 nM

B13: CCL15/MIP-1δ digested with chymase (ligand)
chain: AADCCTSYISQSIPCSLMKSYFETSSECSKPGVIFLTKKGRQVCAKPSGPGVQDCMKKLKPYSI
- EC50, THP-1 cell chemotaxis [1]: 0.05 nM
- fold increase of potency in THP-1 cell migration over full-length CCL15/MIP-1δ [1]: 1000 fold

B14: CCXP5 (peptide)
peptide: MLWRRKIGPQMT
- potency for receptor signaling in L1.2-FPRL1 cells, relative to SHAAGtide [4]: 3 fold
